From the RNAGym collection of RNA variant scans (doi:10.1073/pnas.2313332121)
Fewer inactive variants are shown than the library holds.

B1: TPR 5TU (parent)
chain: GGAUCUUCUCGAUCUAACAAAAAAGACAAAUCUGCCACAAAGCUUGAGAGCAUCUUCGGAUGCAGAGGCGGCAGCCUUCGGUGGCGCGAUAGCGCCAACGUUCUCAACUAUGACACGCAAAACGCGUGCUCCGUUGAAUGGAGUUUAUCAUG

Variants of: B1
Test: polymerase ribozyme fitness, log enrichment relative to wild type (log ratio); higher = more active; in vitro selection for triplet polymerase activity
Procedure, shortened: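 Input and output libraries were sequenced on Illumina after a single in vitro selection round, run in triplicate on PCR-built, transcribed mutant libraries of each subunit of a heterodimeric triplet polymerase ribozyme. Selection annealed libraries to a biotinylated primer, the partner subunit and triplets, incubated them frozen at −7 °C, then gel-excised extended constructs for streptavidin-bead capture and RT-PCR. Genotypes with ≥10 input reads and ≥1 read per output were kept. Fitness is the logarithm, taken in base 2, of genotype enrichment divided by wild-type enrichment, using inverse-variance-weighted replicate averages.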

Variant	polymerase ribozyme fitness (log ratio)
C27U C57U G94A C95A G143A	≤ -4.2
C27U G42A G67U C69A G117A A150C	≤ -4.2
C27U A60U	-1.43
A28G A106G U134G	≤ -4.2
A28U C36G C85G G94A C131G	≤ -4.2
A28U C43A U109G G141C	≤ -4.2
C27G A37U A64C G88C A91C A120G A122U U148G	-4.09
C27U C87U A142U	-3.03
C27U U61G U82G A89U A91G G100A A113U G140U	≤ -4.2
C27U U45A G71A C75A A89U C118A	≤ -4.2
C27U A47G C93A	-4.19
C27G C75G C93A C103G U134A	≤ -4.2
A28U C87A C131G	≤ -4.2
A28C U45A G88A C96A G100A G143A	≤ -4.2
C27G C54A	-3.98
A28U C79A C87G C96G	≤ -4.2
C27G G80A G81C	-4.11
A28U A147C U151C G152C	≤ -4.2
C27G G58C G86A C105A U144A	≤ -4.2
C27U A39U U53A C93U	≤ -4.2
A28C A47C G62C C108G A122C	≤ -4.2
A28U A40U A49C G68U U90G C96U A107G A110C	≤ -4.2
C27U A37C G59U G92C G117C	-3.65
C27U A49C G88A U111G	≤ -4.2

Variant	polymerase ribozyme fitness (log ratio)
C27G A28U G50U C87G G140C	-3.94
C27G C105A C114A A119G	≤ -4.2
A28G A39U U53A G71A C93A	≤ -4.2
C27U A97U C116U A120C	-3.06
A28G G42C C43G U56C C85G G92A G124U A150U	≤ -4.2
C27U C85A A91U G143A	≤ -4.2
A28U A47C C63G G86C C129A	≤ -4.2
C27U A37U C125U	-3.74
C27U A52G G92A C96U G133A	≤ -4.2
C27A C87U	-3.91
A28U C85A	-4.11
C27A C54G G67U G84C	≤ -4.2
A28G C38U U61A G67U C85G A98G	-3.98
C27A G50A C54U C95A	≤ -4.2
A28C U144G	-4.03
C27U G68U G74U U77C G80C U104C C116G	≤ -4.2
A28C U56A C72U C76G	≤ -4.2
A28G G94C G100U U134G	≤ -4.2
A28U C54A G92U C118U G124U C131A A137U	≤ -4.2
C27U C118U	-1.44
A28U G58C C96A A97G U144A U145G	≤ -4.2
C27U A41C C95U C125U	-2.83
A28G A41C G42U A66G C96G G133U U144G	-4.13
A28G U33G G34U G59C U104G C118U	≤ -4.2

Variant	polymerase ribozyme fitness (log ratio)
C27U A39U A73G C79U C93A	≤ -4.2
C27U A28U C76U U78G C93G A119G	≤ -4.2
A28C U33G G50A C95A U134A	≤ -4.2
C27U G141C	-2.54
C27G G84A G136U	≤ -4.2
C27U C76G G84U	≤ -4.2
C27A C85A	≤ -4.2
A28C G84A C87G C96G A121U	≤ -4.2
A28U C95A	-3.41
A28C C57U U82C C85G U111G A137U	≤ -4.2
C27A U101G	-3.63
C27U C35U A49U C51G U53A G86U U151G	≤ -4.2
A28C C57A A66U G71A C87A U102G A138C	≤ -4.2
C27U G48A C69A C96A A121G	≤ -4.2
C27A U55A C76U A98G	≤ -4.2
C27A U56A	-3.7
C27G G62A A64G A73C G88U C99U A107U G124A U130C U148A	≤ -4.2
C27U C63U C76U G81C U101G U146G	-3.39
C27U U33C A73G C85U	-0.859
C27G A37U U55A U56A G70A G84C C108U	≤ -4.2
C27U U55A	-0.901
A28U A40C C75U G83U G133A	≤ -4.2
A28C A40U U53A G84U A115U	≤ -4.2
A28C U31G G50C A52C G74A G80U G86U A121U	≤ -4.2

Variant	polymerase ribozyme fitness (log ratio)
A28U G50C C54U C95A A107U G143U	≤ -4.2
C27U G34U C93U G112C U148G	≤ -4.2
C27G C85G G88A G100C U148G	≤ -4.2
A28G C32U G50A C85A	≤ -4.2
C27G U55A A73G U77A C87A A142U	≤ -4.2
C27G C51U C54A U78A G94C	≤ -4.2
A28G A29U A89C G141C	≤ -4.2
C27G G83A	-4.12
C27U C51U U53A U101G	-3.98
C27G C76A	-3.63
C27G C85A U90G	≤ -4.2
C27U G81U C85U	-2.15
C27G C35G A64U A73G C79A C85G A91U	≤ -4.2
A28C C32G C63U	≤ -4.2
C27A U44A C85A A107C U148C	≤ -4.2
C27U A47U A49C G117A	≤ -4.2
A28C U134A	≤ -4.2
C27U A28U U53G C93A	≤ -4.2
A28G C38A C54G G88C C103A	≤ -4.2
C27U G50C C87A C105G	≤ -4.2
A28U C87U A106U C108U A119C U148C	≤ -4.2
A28U G48C C54U G74U U77A G86U A98U C103G	≤ -4.2
C27G A39G G83A G143U	≤ -4.2
A28C G58C	≤ -4.2

Variant	polymerase ribozyme fitness (log ratio)
A28C A41U C43U G46C C85A U130G U135C	≤ -4.2
C27A C93U C116U G126A A147G	≤ -4.2
A28G A29U	-3.79
A28U A37C U139C U151G	≤ -4.2
A28G C93U C118A	≤ -4.2
C27G C32G C36G A73G C93G U135A	-4.18
C27U A120G C125A	-1.81
C27U U53A C85G	-3.88
C27U G58A G59C C99U U102G A120C C125U	≤ -4.2
A28G G88U G92A A98G G133U U144A	≤ -4.2
C27A C38U G81A G86U A110U	≤ -4.2
A28U A29G C32U C57G	≤ -4.2
C27U U44A G46A C54A C116G A147U	≤ -4.2
A28G A49C C76U G94U A150G	≤ -4.2
C27U A40C U55A C114U U139G	-3.95
C27U C51U G83A	-2.56
C27U U55A G68U C85G	≤ -4.2
A28C A52G C76G A91U U146G	≤ -4.2
A28G C57A U61A C76A G88A C93U U102G	≤ -4.2
C27U U55A C99G A138G	≤ -4.2
C27G A30G A39U C87A	≤ -4.2
C27U A40U G59U A107G C116A	≤ -4.2
C27G C36G C85U	≤ -4.2
A28C A39U G48C G70A G84C C93G G140U	≤ -4.2

Variant	polymerase ribozyme fitness (log ratio)
A28G G84U	-4.02
A28C A30U C35G C87A C105U	-3.84
C27U G65C A66C A73U C93A C108G C129G	-3.81
A28C A39C C54G U61A C99U	≤ -4.2
A28U C35U A91U C132U	-3.89
C27U C93U	-3.3
C27G U56G	≤ -4.2
C27U C76U G83A	-1.55
C27G G141U	-4.04
A28C A49U U56A G65A G70C A91U G94C G117C U151A	≤ -4.2
C27U A41C G81U C96A	-2.31
A28U A29U G74C C79G A89C C118A A120U A122G C125G	≤ -4.2
A28U A39U	≤ -4.2
A28C C57U G84A C96U G124U	≤ -4.2
C27U C32A G46U A47C U53A C87G	≤ -4.2
A28U C87G U127A G133C U139A	-4.15
A28U C79G	≤ -4.2
C27A G58A G84A	≤ -4.2
A28U G42U G59C A64C U78C C87A	≤ -4.2
C27U C72U G88A G94A G152A	-4.19
C27U C75U	-1.25
C27U A49G	-2.49
A28U A29G A40G C85G U90G U134G	≤ -4.2
C27U A64G C75G G86A C105U	-4.19

Variant	polymerase ribozyme fitness (log ratio)
C27G A52C U53A A64G C69A U78A C79A C87G G94C C95A A142C	≤ -4.2
C27A G50U C57U A60C C116G U146G A147C	≤ -4.2
C27U U44G U56A G58C U61A G86U U135C	≤ -4.2
C27G C57U A91U C95A C131G U134G G140A	≤ -4.2
A28C A52G G88C A89G U101C C105G	≤ -4.2
A28G A41G U45A G94C A97U	-3.76
A28G A106C G133U A142C	≤ -4.2
A28G U53A G84U G140A	≤ -4.2
A28C G84U G88C A91G G124U	≤ -4.2
C27U C32A A39U C75U A91C A121C G126C	≤ -4.2
C27U U56A G84U G86C C114G U145A	≤ -4.2
C27G C35U G74U C118U U130A A137U	≤ -4.2
C27U C35U U53A U56G C57A C93A A113C A122G U146A C149G	≤ -4.2
C27A U53A A119C	≤ -4.2
C27G U45G	-3.87
C27G G67C C85A	≤ -4.2
C27G A29C C87G A121U	≤ -4.2
C27G A39G C93G G112A C129G	≤ -4.2
C27U G83A C125U U130G U135G	≤ -4.2
C27U C54U G58A A106G	-0.532
A28C U33G U77C U90G C93A U148C G152A	≤ -4.2
C27G G59U A60C A91U C105U U145C	≤ -4.2
C27U A30G A52C	≤ -4.2
